Data reported in patent US20100190701A1 (INDIANA UNIVERSITY RESEARCH AND TECHNOLOGY, published 2010).
Like-named read-outs stand apart in the source and are kept apart here. Bridge positions count the residues as written; N and C are the ends. Square brackets hold non-standard residues; d marks the D form. Ends that are not written are not given here. Nle = CCCC[C@H](N)C(=O)O; Orn = NCCC[C@H](N)C(=O)O; PEG = not defined here; Aib = CC(C)(N)C(=O)O

Key:
Assay in all cases: cell-based or functional assay
[1] = target: T1, glucagon receptor (UniProt P47871 26-477, limits assumed)
[2] = target: T2, GLP-1 receptor (UniProt P43220 24-463, limits assumed)
[3] = target: T2, GLP-1 receptor; remark: listed apart in the source
[4] = target: T1, glucagon receptor; remark: listed apart in the source
[5] = target: T2, GLP-1 receptor; remark: listed apart in the source
[6] = target: T2, GLP-1 receptor; remark: listed apart in the source

T1 sequence (P47871 26-477 limits assumed): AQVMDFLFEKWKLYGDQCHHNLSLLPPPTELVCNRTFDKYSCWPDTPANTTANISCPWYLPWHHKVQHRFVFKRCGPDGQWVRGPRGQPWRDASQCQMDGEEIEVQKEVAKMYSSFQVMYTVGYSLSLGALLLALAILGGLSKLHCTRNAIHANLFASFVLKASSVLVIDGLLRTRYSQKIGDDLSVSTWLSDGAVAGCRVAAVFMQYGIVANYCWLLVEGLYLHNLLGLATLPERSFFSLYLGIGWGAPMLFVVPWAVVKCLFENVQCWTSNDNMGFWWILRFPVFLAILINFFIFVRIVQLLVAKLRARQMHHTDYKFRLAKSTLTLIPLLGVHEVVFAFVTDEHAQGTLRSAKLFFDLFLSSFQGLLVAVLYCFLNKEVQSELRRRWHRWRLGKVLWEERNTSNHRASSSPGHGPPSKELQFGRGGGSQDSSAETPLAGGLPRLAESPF

How did the “% Potency Relative to Native” value [1] turn out when H[Aib]QGTFTSDYSKYLDEQAAKEFIC(PEG)WLMNT-NH2 (lactam 16-20; not fully specified; reading uncertain) [Chimera AIB2, Cys24 Lactam (SEQ ID NO: 504), parent w/PEG] was run?
The value was 9.2%.

And the “% Potency Relative to Native” value [2]?
The value was 38%.

H[Aib]QGTFTSDYSKYLDEQAAKEFIC(PEG)WLMNT-NH2 (not fully specified; reading uncertain) [Chimera AIB2, Cys24 (SEQ ID NO: 486), parent w/PEG] was tested. Which “% Potency Relative to Native” value [1] did it give?
Its value is 2.6%.

And the “% Potency Relative to Native” value [2]?
The value was 82.5%.

With HAEGTFTSDVSSYLEGQAAKEFIAWLVKGG-NH2 [GLP-1-VKGG30 (SEQ ID NO: 527)] as the binder, how does the “EC50” value [3] read?
Its value is 25 pM.

Which “EC50” value [4] does the source give for HSQGTFTSDYSKYLDSRRAQDFVQWLVKGGPSSGAPPPS-NH2 [-VKGG30 PSSGAPPPS (SEQ ID NO: 524)] here?
Its value is 1160 pM.

What about the “EC50” value [3] of the same binder?
The value was 210 pM.

Which “cAMP Induction, Percent Potency Relative to Native Ligand” value [5] does the source give for HS[Orn]GTFTSDYSKYLDERRAQDFVQWLMNT-NH2 [Orn3, E16 Gluc-NH2] here?
The value was 0.1%.

HSQGTFTSDYSKYLDSRRAQDFVQWLMNTGPSSGAPPPS (C-terminal amide) [Glucagon-Cex] was tested. Which “EC50” value [4] did it give?
Its value is 140 pM.

For H[Aib]QGTFTSDYSKYLDEQAAKEFICWLMNT-NH2 [Chimera AIB2, Cys24 (SEQ ID NO: 486), parent w/o PEG], which “% Potency Relative to Native” value [1] is on record?
Its value is 15.4%.

What about the “% Potency Relative to Native” value [2] of the same binder?
Its value is 161%.

For HSQGTFTSDYSKYLDSRRAQDFVQWLMNGGPSSGAPPPS-NH2 [-MNGG30 PSSGAPPPS (SEQ ID NO: 522)], which “EC50” value [3] is on record?
The value was 310 pM.

With HSQGTFTSDYSKYLDERRAKDFVQWLMDGGPSSGAPPPS-NH2 [E16K20-MDGG30 PSSGAPPPS (SEQ ID NO: 526)] as the binder, how does the “EC50” value [3] read?
Its value is 20 pM.

How did the “% Potency Relative to Native” value [1] turn out when H[Aib]QGTFTSDYSKYLDEQAAKEFICWLMNT-NH2 (lactam 16-20) [Chimera AIB2, Cys24 Lactam (SEQ ID NO: 504), parent w/o PEG] was run?
Its value is 114%.

And the “% Potency Relative to Native” value [2]?
Its value is 230%.

HSQGTFTSDYSKYLDSRRAQDFVQWLMKGGPSSGAPPPS-NH2 [-MKGG30 PSSGAPPPS (SEQ ID NO: 523)] was tested. Which “EC50” value [4] did it give?
Its value is 610 pM.

And the “EC50” value [3]?
The value was 800 pM.

HSQGTFTSDYSKYLEERRAQDFVQWLMNT-NH2 [E15, E16 Gluc-NH2] was tested. Which “cAMP Induction, Percent Potency Relative to Native Ligand” value [6] did it give?
Its value is 9.2%.

Which results are given for HSQGTFTSDYSKYLDSRRAQDFVQWLMDGGPSSGAPPPS-NH2 [-MDGG30 PSSGAPPPS (SEQ ID NO: 525)]?
EC50 [4]: 120 pM; EC50 [3]: 130 pM

With HS[Nle]GTFTSDYSKYLDERRAQDFVQWLMNT-NH2 [NLeu3, E16 Gluc-NH2] as the binder, how does the “cAMP Induction, Percent Potency Relative to Native Ligand” value [5] read?
The value was 20.6%.
